The text below walks through data of patent US9500651B2, “Method for identifying novel minor histocompatibility antigens” (UNIVERSITÉ DE MONTRÉAL, priority 2012, dated 2016).

One test has as its target T1, HLA-A*0301 (Homo sapiens, UniProt P04439).
T1 construct: endogenous in cells; host or cells: EBV-transformed B lymphoblastoid cell lines (B-LCLs) from PBMCs of 2 HLA-identical siblings
In words: MHC class I-associated peptides eluted from B-LCLs by mild acid treatment and identified by LC-MS/MS with personalized database. Format: cell-based. The settings on record: EBV-transformed B-LCLs of 2 HLA-identical siblings. As to the method:
(§1) Peripheral blood mononuclear cells (PBMCs) were isolated from blood samples of 2 HLA-identical siblings. Epstein-Barr virus (EBV)-transformed B lymphoblastoid cell lines (B-LCLs) were derived from PBMCs with Ficoll-Paque™ Plus (Amersham) as described (Tosato and Cohen, 2007). Established B-LCLs were maintained in RPMI 1640 medium supplemented with 10% fetal bovine serum, 25 mM of HEPES, 2 mM L-glutamine and penicillin-streptomycin (all from Invitrogen).
(§2) Three biological replicates of 4×10^8 exponentially growing B-LCLs were prepared from each subject. MHC class I-associated peptides were released by mild acid treatment, pretreated by desalting with an HLB cartridge, filtered with a 3000 Da cut-off column and separated by cation exchange chromatography (SCX) using an off-line 1100 series binary LC system (Agilent Technologies) as previously described (Fortier et al., 2008). Peptides were loaded at 8 uL/min on a homemade strong cation exchange (SCX) column (0.3 mm internal diameter×50 mm length) packed with SCX bulk material (Polysulfoethyl A™, PolyLC). Peptides were separated into five fractions using a linear gradient of 0-25% B in 25 min (solvent A: 5 mM ammonium formate, 15% acetonitrile, ACN, pH 3.0; solvent B: 2 M ammonium formate, 15% ACN, pH 3.0) and brought to dryness using a Speedvac.
(§3) MHC class I-associated peptide fractions were resuspended in 2% aqueous ACN (0.2% formic acid) and analyzed by LC-MS/MS using an Eksigent™ LC system coupled to a LTQ-Orbitrap™ mass spectrometer (Thermo Electron) (Fortier et al., 2008; de Verteuil et al., 2010; Caron et al., 2011). Peptides were separated in a custom C18 reversed phase column (150 μm i.d.×100 mm, Jupiter Proteo™ 4 μm, Phenomenex) at a flow rate of 600 nL/min using a linear gradient of 3-60% aqueous ACN (0.2% formic acid) in 69 mins. Full mass spectra were acquired with the Orbitrap™ analyzer operated at a resolving power of 60 000 (at m/z 400) and collision-activated dissociation tandem mass spectra were acquired in data-dependent mode with the linear ion trap analyzer. Mass calibration used an internal lock mass (protonated (Si(CH3)2O))6; m/z 445.120029) and mass accuracy of peptide measurements was within 5 ppm.
(§4) Mass spectra were analyzed using Xcalibur™ software and peak lists were generated using Mascot™ distiller version 2.1.1 (Matrix Science, http://www.matrixscience.com). Database searches were performed against a non-redundant human Uniprot database (containing 110,361 sequences, released on 28, Jul. 2011) (version 101 of the UniProt Gene Ontology Annotation available from the European Bioinformatics Institute (EBI), an academic research institute located on the Wellcome Trust Genome Campus in Hinxton near Cambridge (UK), part of the European Molecular Biology Laboratory; http://www.ebi.ac.uk/Informationt; Magrane et al., Database Vol. 2011, Article ID bar009; The UniProt Consortium, Nucleic Acids Res. 2011 January; 39(Database issue): D214-D219) and databases specific for each individual (see “in silico translated transcriptome” section) using Mascot (version 2.3, Matrix Science). A Mascot search against a concatenated target/decoy database consisting of combined forward and reverse versions of the Ensembl human reference genome database and of each subject-specific database. Non-redundant peptide sequences with a cutoff score threshold above 15 were selected. The tolerances for precursor and fragment mass values were set to 0.02 and 0.05 Dalton, respectively. Searches were performed without enzyme specificity and a variable modification for oxidation (Met) and deamidation (Asn, Gln). Raw data files were converted to peptide maps comprising m/z values, charge state, retention time and intensity for all detected ions above a threshold of 8000 counts using in-house software (Proteoprofile) (Fortier et al., 2008; de Verteuil et al., 2010; Caron et al., 2011). […]
In the case of “AMYDKGPFRSK (listed as Homo sapiens) [MiHA peptide from NQO1, rs1131341, arginine allele]”, the “presentation at the cell surface by MHC class I allele” value (“presentation at the cell surface” for short) is listed as “presented at the cell surface”.

With “AMYDKGPFWSK (listed as Homo sapiens) [MiHA peptide from NQO1, rs1131341, tryptophan allele]”, the “presentation at the cell surface” value is on record as “presented at the cell surface”.

Turning to “RVSLPTSPG (listed as Homo sapiens) [MiHA peptide from KIAA0226L, rs1408184, glycine allele]”, the “presentation at the cell surface” value is “presented at the cell surface”.

“RVSLPTSPR (listed as Homo sapiens) [MiHA peptide from KIAA0226L, rs1408184, arginine allele]”: the “presentation at the cell surface” value is reported as “presented at the cell surface”.

Take “SVLKPGNSK (listed as Homo sapiens) [MiHA peptide from ELF1, rs1056820, serine allele]”: the “presentation at the cell surface” value is on record as “presented at the cell surface”.

Consider “TVLKPGNSK (listed as Homo sapiens) [MiHA peptide from ELF1, rs1056820, threonine allele]”, for which the “presentation at the cell surface” value is given as “presented at the cell surface”.

Turning to “VMGNPGTFK (listed as Homo sapiens) [MiHA peptide from RMDN1, rs6980476, lysine allele]”, the “presentation at the cell surface” value is “presented at the cell surface”.

“VMGNPGTFN (listed as Homo sapiens) [MiHA peptide from RMDN1, rs6980476, asparagine allele]”: the “presentation at the cell surface” value is “presented at the cell surface”.

A further test concerns the target HLA-B*4403 (Homo sapiens, UniProt P01889, A223V/A65T/A93T/A95T/D201E/D98Y/E176V/E187L/E204Q/E69K/G107R/H137Y/K202T/L105A/L119I/N104T/N87E/Q56L/Q94N/R106L/R155S/R180L/S101N/S121R/S35A/S48T/T118I/V36M/W191S/Y140D/Y91S). The test is described as above. Format: cell-based. To be noted: EBV-transformed B-LCLs of 2 HLA-identical siblings. As for the experimental part:
as §1, §2, §3, §4
In the case of “QELDGVFQKL (listed as Homo sapiens) [MiHA peptide from ZWINT, rs2241666, glycine allele]”, the “presentation at the cell surface” value is given as “presented at the cell surface”.

Consider “QELDRVFQKL (listed as Homo sapiens) [MiHA peptide from ZWINT, rs2241666, arginine allele]”, for which the “presentation at the cell surface” value is on record as “presented at the cell surface”.

For a further test, the target named is HLA-B*0801 (Homo sapiens, UniProt P01889, A93T/A95T/D138N/E176V/E187T/K202T/Q94N/R180D/S35A/V36M/Y33D/Y91F). Described as above. The settings on record: EBV-transformed B-LCLs of 2 HLA-identical siblings. It counts as cell-based. As to the method: as §1, §2, §3, §4
In the case of “ELQEKFLSL (listed as Homo sapiens) [MiHA peptide from CENPF, rs3795517, leucine allele]”, the “presentation at the cell surface” value is given as “presented at the cell surface”.

On to “ELQEKFSSL (listed as Homo sapiens) [MiHA peptide from CENPF, rs3795517, serine allele]”, for which the “presentation at the cell surface” value is given as “presented at the cell surface”.

For “SLFFRKVAF (listed as Homo sapiens) [MiHA peptide from MTCH2, rs1064608, alanine allele]”, the “presentation at the cell surface” value was “presented at the cell surface”.

In the case of “SLFFRKVPF (listed as Homo sapiens) [MiHA peptide from MTCH2, rs1064608, proline allele]”, the “presentation at the cell surface” value is “presented at the cell surface”.
